In US8546535 (ESPERANCE PHARMACEUTICALS, dated 2013):
Several values for one entry are separate records, joined by “and”; a condition that tells them apart may be missing. Equal entries are not always repeated.

Key:
[1] = target: luteinizing hormone-releasing hormone (LHRH) receptor (human) (UniProt P30968); test: cell-based or functional assay
[2] = target: T1, luteinizing hormone-releasing hormone (LHRH) receptor (human, UniProt P30968 1-328); test: cell-based or functional assay
T1 sequence (looked up): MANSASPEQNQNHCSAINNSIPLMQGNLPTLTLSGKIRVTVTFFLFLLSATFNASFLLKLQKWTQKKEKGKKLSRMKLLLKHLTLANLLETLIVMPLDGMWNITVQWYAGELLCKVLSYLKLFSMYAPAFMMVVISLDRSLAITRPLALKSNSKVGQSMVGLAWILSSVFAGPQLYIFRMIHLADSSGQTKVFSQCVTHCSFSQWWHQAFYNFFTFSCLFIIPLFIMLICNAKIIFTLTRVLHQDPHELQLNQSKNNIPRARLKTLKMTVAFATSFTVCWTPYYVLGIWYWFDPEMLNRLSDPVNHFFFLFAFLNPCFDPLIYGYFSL

LHRH-Phor21 (peptide)
IC50, cytotoxicity in TM4 cells (no LHRH receptors; receptor-negative control) [1]: 10900 nM

B1: Phor18-LHRH (338613) (peptide)
peptide: KFAKFAKKFAKFAKKFAKQHWSYGLRPG
IC50, cytotoxicity (MTT) in MCF-7 cells [2]: 3400 nM and 1800 nM | IC50, cytotoxicity (MTT) in MDA-MB-435S cells, 0.5 hour incubation [2]: 1200 nM | IC50, cytotoxicity (MTT) in MDA-MB-435S cells, 1 hour incubation [2]: 600 nM | IC50, cytotoxicity (MTT) in OVCAR-3 cells, increasing incubation time (1st of 7 values) [2]: 6700 nM | IC50, cytotoxicity (MTT) in OVCAR-3 cells, increasing incubation time (2nd of 7 values) [2]: 5600 nM | IC50, cytotoxicity (MTT) in OVCAR-3 cells, increasing incubation time (3rd of 7 values) [2]: 5300 nM | IC50, cytotoxicity (MTT) in OVCAR-3 cells, increasing incubation time (4th of 7 values) [2]: 1600 nM | IC50, cytotoxicity (MTT) in OVCAR-3 cells, increasing incubation time (5th of 7 values) [2]: 1500 nM | IC50, cytotoxicity (MTT) in OVCAR-3 cells, increasing incubation time (6th of 7 values) [2]: 500 nM | IC50, cytotoxicity (MTT) in OVCAR-3 cells, increasing incubation time (7th of 7 values) [2]: 500 nM | IC50, cytotoxicity (MTT) in SKOV-3 cells, 24 hours incubation (cells without functional LHRH receptors; receptor-negative control) [2]: 11500 nM
